Reference: the supplement of paper PMC7877785
± gives the uncertainty stated by the source.

Assay: self-splicing fitness, log relative to wild type (ln ratio); higher = more splicing; Tetrahymena group I intron in knt gene, E. coli kanamycin selection, DiMSum; sequences stand for … in CUCUCU…GGAGGGAAAAGUUAUCAGGCAUGCACCUGGUAGCUAGUCUUUAAACCAAUAGAUUGCAUCGGUUUAAAAGGCAAGACCGUCAAAUUGCGGGAAAGGGGUCAACAGCCGUUCAGUACCAAGUCUCAGGGGAAACUUUGAGAUGGCCUUGCAAAGGGUAUGGUAAUAAGCUGACGGACAUGGUCCUAACCACGCAGCCAAGUCCUAAGUCAACAGAUCUUCUGUUGAUAUGGAUGCAGUUCACAGACUAAAUGUCGGUCGGGGAAGAUGUAUUCUUCUCAUAAGAUAUAGUCGGACCUCUCCUUAAUGGGAGCUAGCGGAUGAAGUGAUGCAACACUGGAGCCGCUGGGAACUAAUUUGUAUGCGAAAGUAUAUUGAUUAGUUUUGGAGUACUCGUGGUCG
Outline: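 A randomised library covering all eight P1ex-region intron nucleotides was built with the intron in the knt kanamycin-resistance gene on pET-22b(+) and held in E. coli BL21(DE3). Cells were grown overnight at 37°C or 30°C on LB agar, with or without 25 μg/mL kanamycin, plus 100 μg/mL carbenicillin, 50 μM IPTG and 0.2% rhamnose, and pooled colonies were amplicon-sequenced on an Illumina HiSeq 2500. DiMSum fitness is the error-weighted combination of wild-type-normalised replicate fold changes, kanamycin versus none.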

Row | Sequence | self-splicing fitness (ln) (30 °C) | self-splicing fitness (ln) (37 °C)
1 | UCCCAGCAAUAUUACGUACA | -1.92 ± 0.14 | -0.819 ± 0.1
2 | UUGCAGCAAUAUUACGAAGU | -2.38 ± 0.23 | -1.75 ± 0.36
3 | GCGCAGCAAUAUUACGUCGC | -2.27 ± 0.14 | -2.2 ± 0.27
4 | ACUUAGCAAUAUUACGAAAA | -2.79 ± 0.26 | -2.01 ± 0.27
5 | UUUCAGCAAUAUUACGUAUC | -1.71 ± 0.14 | -1.5 ± 0.14
6 | UCGCAGCAAUAUUACGCAAG | -3.01 ± 0.17 | -1.69 ± 0.25
7 | CGAUAGCAAUAUUACGGAUC | -3.1 ± 0.3 | -2.6 ± 0.23
8 | CUAAAGCAAUAUUACGAUGG | -0.196 ± 0.058 | 0.0185 ± 0.091
9 | CAUCAGCAAUAUUACGUUAC | -4.12 ± 0.39 | -1.92 ± 0.22
10 | GAGGAGCAAUAUUACGGUUG | -3.94 ± 0.23 | -2.17 ± 0.2
11 | GCCUAGCAAUAUUACGCCGC | -2.48 ± 0.36 | -1.5 ± 0.34
12 | UACAAGCAAUAUUACGGCCC | -1.69 ± 0.31 | -1.35 ± 0.44
13 | GGCUAGCAAUAUUACGGAUA | -0.897 ± 0.13 | -0.492 ± 0.15
14 | UACUAGCAAUAUUACGUAGU | -3.62 ± 0.22 | -1.65 ± 0.25
15 | CAUGAGCAAUAUUACGUGCU | -3.6 ± 0.38 | -2.39 ± 0.32
16 | CACAAGCAAUAUUACGCACC | -3.98 ± 0.37 | -2.4 ± 0.3
17 | UUGAAGCAAUAUUACGCAAA | -0.591 ± 0.13 | -0.121 ± 0.14
18 | CCUAAGCAAUAUUACGUAAA | -3.49 ± 0.24 | -2.43 ± 0.16
19 | CUGCAGCAAUAUUACGCGCU | -2.68 ± 0.2 | -2.27 ± 0.22
20 | AAUUAGCAAUAUUACGAUAU | -0.45 ± 0.093 | 0.012 ± 0.12
21 | GACGAGCAAUAUUACGCUGU | -3.17 ± 0.3 | -2.9 ± 0.33
22 | CACCAGCAAUAUUACGGGUG | -3.87 ± 0.15 | -2.26 ± 0.15
23 | GUAGAGCAAUAUUACGCGUU | -0.368 ± 0.065 | -0.909 ± 0.11
24 | UCUUAGCAAUAUUACGCCAU | -2.69 ± 0.3 | -2.26 ± 0.42

Row | Sequence | self-splicing fitness (ln) (30 °C) | self-splicing fitness (ln) (37 °C)
25 | AUCCAGCAAUAUUACGUCGA | -0.897 ± 0.097 | -0.557 ± 0.12
26 | UCUCAGCAAUAUUACGAAUA | -2.57 ± 0.21 | -0.0366 ± 0.13
27 | ACUAAGCAAUAUUACGAAAA | -2.26 ± 0.33 | -1.72 ± 0.36
28 | GUAGAGCAAUAUUACGAGUU | -2.39 ± 0.2 | -1.85 ± 0.2
29 | CGGCAGCAAUAUUACGCGAC | -4.41 ± 0.42 | -1.36 ± 0.18
30 | UCAUAGCAAUAUUACGCUUA | – | -1.21 ± 0.26
31 | UAGAAGCAAUAUUACGCCUA | -0.42 ± 0.13 | 0.0572 ± 0.14
32 | UAAAAGCAAUAUUACGAGUG | -0.615 ± 0.057 | 0.0674 ± 0.084
33 | CACUAGCAAUAUUACGUCGA | -1.58 ± 0.13 | -1.48 ± 0.1
34 | AAGAAGCAAUAUUACGCCAA | -2.24 ± 0.25 | -1.04 ± 0.21
35 | GGUCAGCAAUAUUACGGCGC | -0.127 ± 0.12 | -0.0173 ± 0.14
36 | GUGCAGCAAUAUUACGUCAU | -2.23 ± 0.089 | -1.95 ± 0.1
37 | AAGAAGCAAUAUUACGAAAG | -3.5 ± 0.21 | -1.69 ± 0.13
38 | GAGAAGCAAUAUUACGUAAA | -2.16 ± 0.14 | -0.647 ± 0.17
39 | AGGGAGCAAUAUUACGUAAG | -3.17 ± 0.2 | -2.28 ± 0.3
40 | CGACAGCAAUAUUACGGAGA | -2.18 ± 0.15 | -3.29 ± 0.28
41 | CAUAAGCAAUAUUACGCGCG | -0.536 ± 0.14 | 0.0409 ± 0.15
42 | CAGUAGCAAUAUUACGAAUG | -1.36 ± 0.1 | -0.492 ± 0.11
43 | AAUGAGCAAUAUUACGACCA | -2.14 ± 0.24 | -2.22 ± 0.37
44 | CAAGAGCAAUAUUACGGCUC | -3.78 ± 0.24 | -2.27 ± 0.32
45 | ACACAGCAAUAUUACGUUUG | -2.67 ± 0.067 | -1.59 ± 0.081
46 | AGGUAGCAAUAUUACGGUAC | -3.522 ± 0.032 | -2.07 ± 0.04
47 | GCUUAGCAAUAUUACGACCA | -1.45 ± 0.2 | -1.29 ± 0.38
